Where “and” joins values, the source holds several entries; their conditions need not be identical. Identical values can stand only once.
Tests used:
Mouse HVEM-Fc [1] = target: T1, Mouse HVEM-Fc (mouse, UniProt Q80WM9); test: ELISA, coated mouse HVEM-mFc 0.2 ug/ml, anti-human IgG4-HRP, SigmaPlot fit
T1 construct: part fused to Fc; also called mouse HVEM-mFc; mHVEM
T1 sequence (fusion chain, looked up): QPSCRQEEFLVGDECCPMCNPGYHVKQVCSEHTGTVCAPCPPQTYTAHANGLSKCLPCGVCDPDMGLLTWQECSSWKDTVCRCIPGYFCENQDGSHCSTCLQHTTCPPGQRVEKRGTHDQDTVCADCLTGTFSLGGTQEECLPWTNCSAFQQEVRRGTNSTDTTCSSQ
Procedure: (§1) The binding ability of the full-size human antibody to HVEM was analyzed using an ELISA testing method. 0.2 μg/ml of each of human HVEM-hFc, cynomolgus monkey HVEM-hFc, and mouse HVEM-mFc proteins was coated on a 96-half-well plate for immunosorbent assay. To inhibit non-specific binding, reaction was carried out in phosphate buffered saline (PBS) containing 3% bovine serum albumin (BSA) for 1 hour, followed by treatment with serially diluted antibodies for 1 hour. To measure the amounts of the bound antibodies, horse radish peroxidase (HRP)-conjugated anti-human IgG4 antibody was used, and for the activity of HRP, a color reaction was induced using a 3,3′,5,5′-tetramethylbenzidine (TMB) substrate solution, and the reaction was terminated with 1N sulfuric acid. […] In the middle of each step, washing was performed three times using PBS (PBST) containing 0.1% Triton X-100. The binding ability of the antibodies was derived using SigmaPlot.

human HVEM-Fc protein [2] = target: T2, human HVEM-Fc protein (human, UniProt Q92956 39-202, limits assumed); test: ELISA, coated human HVEM-hFc, anti-human IgG4-HRP
T2 construct: not shown: Fc
T2 sequence (looked up): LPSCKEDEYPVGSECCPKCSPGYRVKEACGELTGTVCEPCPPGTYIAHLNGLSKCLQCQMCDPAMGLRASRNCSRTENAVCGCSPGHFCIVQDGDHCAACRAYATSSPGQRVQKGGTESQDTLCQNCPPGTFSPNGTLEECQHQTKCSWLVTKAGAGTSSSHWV

Monkey HVEM-Fc = target: T3, Monkey HVEM-Fc (Macaca fascicularis, UniProt A0A2K5W0R1); test: ELISA, coated cynomolgus monkey HVEM-hFc, anti-human IgG4-HRP
T3 construct: part fused to Fc; also called cynomolgus monkey HVEM-hFc
T3 sequence (fusion chain): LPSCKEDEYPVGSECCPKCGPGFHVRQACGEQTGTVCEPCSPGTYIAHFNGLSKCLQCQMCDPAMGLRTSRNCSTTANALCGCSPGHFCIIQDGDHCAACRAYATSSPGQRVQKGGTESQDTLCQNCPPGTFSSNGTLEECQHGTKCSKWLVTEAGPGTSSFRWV
Procedure: as §1

human HVEM-Fc protein [3] = target: T2, human HVEM-Fc protein; test: Octet BLI
Mouse HVEM-Fc [4] = target: T1, Mouse HVEM-Fc; test: ELISA, coated mouse HVEM-mFc, anti-human IgG4-HRP
Procedure: as §1

human HVEM-Fc protein [5] = target: T2, human HVEM-Fc protein; test: ELISA, coated human HVEM-hFc 0.2 ug/ml, anti-human IgG4-HRP, SigmaPlot fit
Procedure: as §1

human HVEM-Fc protein [6] = target: T2, human HVEM-Fc protein; test: Octet BLI (column kdis)
human HVEM-Fc protein [7] = target: T2, human HVEM-Fc protein; test: flow cytometry competition: human HVEM-Fc 1 ug/ml on BTLA-expressing Jurkat cells, antibody 10 or 100 nM; blocked ligand BTLA
Procedure: For flow cytometry, the stained cell lines were fixed on ice for 20 minutes using PBS containing 2% formaldehyde and stored in a refrigerator until flow cytometry.

B1: HVEM001 (antibody, human IgG4 S228P, kappa, V domains shown)
VH: EVQLLESGGGLVQPGGSLRLSCAASGFTFSNYAMHWVRQAPGKGLEWVSNINPSGGSTTYAQEFEDRFTISRDNSKNTLYLQMNSLRAEDTAVYYCATRSRQDSWGYFDIWGQGTLVTVSS
VL: EIVLTQSPGTLSLSPGERATLSCRASRSISNYLAWYQQKPGQAPRLLIYGASTRATGIPDRFSGSGSGTDFTLTISRLEPEDFAVYYCQQYGSSPPLTFGQGTKVEIKR
Question: How did the “binding affinity (ELISA fit)” value (Mouse HVEM-Fc [1]) turn out when B1 was run?
Answer: 151 pM

Question: What about the “binding affinity (ELISA fit; table in pM)” value (human HVEM-Fc protein [2]) of the same binder?
Answer: 32.8 pM

Question: What about the “binding affinity (ELISA fit; table in pM)” value (Monkey HVEM-Fc) of the same binder?
Answer: 341 pM

Question: What about the Kd (human HVEM-Fc protein [3]) of the same binder?
Answer: 26.3 pM

Question: And the kon (human HVEM-Fc protein [3])?
Answer: 287000 M⁻¹ s⁻¹

Question: And the “binding affinity (ELISA fit; table in pM)” value (Mouse HVEM-Fc [4])?
Answer: 228 pM

Question: And the “binding affinity (ELISA fit)” value (human HVEM-Fc protein [5])?
Answer: 22 pM

Question: What about the koff (human HVEM-Fc protein [6]) of the same binder?
Answer: 7.55e-06 s⁻¹

B2: HVEM004 (antibody, human IgG4 S228P, kappa, V domains shown)
VH: EVQLLESGGGLVQPGGSLRLSCAASGFTFSSYAMSWVRQAPGKGLEWVSSISGSGGKTYYADSVRGRFTISRDNSKNTLYLQMNSLRAEDTAVYYCAKGVGYTTSGRFDYWGQGTLVTVSS
VL: EIVLTQSPGTLSLSPGERATLSCRASRSISSYLAWYQQKPGQAPRLLIYGVSTRATGIPDRFSGSGSGTDFTLTISRLEPEDFAVYYCQQYGSWPPFTFGQGTKVEIKR
Question: Does B2 bind (human HVEM-Fc protein [7])?
Answer: binds

B3: HVEM021 (antibody, human IgG4 S228P, kappa, V domains shown)
VH: EVQLLESGGGLVQPGGSLRLSCAASGFTFSTFAMHWVRQAPGKGLEWVSSIYPSGNTHYKPSLKSRFTISRDNSKNTLYLQMNSLRAEDTAVYYCARRHPGGGWIFDYWGQGTLVTVSS
VL: EIVLTQSPGTLSLSPGERATLSCRASRSVGKYLAWYQQKPGQAPRLLIYGASTRATGIPDRFSGSGSGTDFTLTISRLEPEDFAVYYCQQYGSSPPVTFGQGTKVEIKR
notes: Full-size human IgG4 (S228P) kappa antibody made in ExpiCHO-S; human IL-2 signal peptide is cleaved and left out; also called HVEM021 antibody
Question: Which results are given for B3?
Answer: binding affinity (ELISA fit; table in pM) (human HVEM-Fc protein [2]): 32.5 pM; binding affinity (ELISA fit; table in pM) (Monkey HVEM-Fc): 61.8 pM; Kd (human HVEM-Fc protein [3]): 34.4 pM; kon (human HVEM-Fc protein [3]): 471000 M⁻¹ s⁻¹; binding affinity (ELISA fit; table in pM) (Mouse HVEM-Fc [4]): 55.6 pM; koff (human HVEM-Fc protein [6]): 1.62e-06 s⁻¹

B4: HVEM039 (antibody, human IgG4 S228P, kappa, V domains shown)
VH: EVQLLESGGGLVQPGGSLRLSCAASGFTFSSYGMNWVRQAPGKGLEWVSIINPSGDTTTYAQKFQGRFTISRDNSKNTLYLQMNSLRAEDTAVYYCARGRGAFDYWGQGTLVTVSS
VL: EIVLTQSPGTLSLSPGERATLSCRASRSVGKYLAWYQQKPGQAPRLLIYGATSRATGIPDRFSGSGSGTDFTLTISRLEPEDFAVYYCQQYGSSPPVTFGQGTKVEIKR
Question: Which “binding affinity (ELISA fit)” value (Mouse HVEM-Fc [1]) does the source give for B4 here?
Answer: 334 pM

Question: And the “binding affinity (ELISA fit)” value (human HVEM-Fc protein [5])?
Answer: 19.5 pM

B5: HVEM032 (antibody, human IgG4 S228P, kappa, V domains shown)
VH: EVQLLESGGGLVQPGGSLRLSCAASGFTFSNYAIHWVRQAPGKGLEWVSTISSPGSTINYADSVKGRFTISRDNSKNTLYLQMNSLRAEDTAVYYCASGYLYPAMDVWGQGTLVTVSS
VL: EIVLTQSPGTLSLSPGERATLSCRASRSVGKYLSWYQQKPGQAPRLLIYGASKLQSGIPDRFSGSGSGTDFTLTISRLEPEDFAVYYCQQYGSWPPFTFGQGTKVEIKR
Question: Which results are given for B5?
Answer: binding affinity (ELISA fit) (Mouse HVEM-Fc [1]): 114 pM; binding affinity (ELISA fit) (human HVEM-Fc protein [5]): 16.9 pM

B6: HVEM018 (antibody, human IgG4 S228P, kappa, V domains shown)
VH: EVQLLESGGGLVQPGGSLRLSCAASGFTFSSYSMNWVRQAPGKGLEWVSAISGSGGGTYSADSVKGRFTISRDNSKNTLYLQMNSLRAEDTAVYYCARGKAYGYFDYWGQGTLVTVSS
VL: EIVLTQSPGTLSLSPGERATLSCRASRSVGKYLAWYQQKPGQAPRLLIYAASTLQSGIPDRFSGSGSGTDFTLTISRLEPEDFAVYYCQQYGSSPPVIFGQGTKVEIKR
Question: How did the “binding affinity (ELISA fit)” value (Mouse HVEM-Fc [1]) turn out when B6 was run?
Answer: 158 pM

Question: And the “binding affinity (ELISA fit)” value (human HVEM-Fc protein [5])?
Answer: 25.9 pM

B7: HVEM011 (antibody, human IgG4 S228P, kappa, V domains shown)
VH: EVQLLESGGGLVQPGGSLRLSCAASEFTFSSYAMHWVRQAPGKGLEWVSSITSASSYIDYADSVKGRFTISRDNSKNTLYLQMNSLRAEDTAVYYCARGTRGLFDHWGQGTLVTVSS
VL: EIVLTQSPGTLSLSPGERATLSCRASRSVGKYLAWYQQKPGQAPRLLIYLGSNRASGIPDRFSGSGSGTDFTLTISRLEPEDFAVYYCQQYGSSPPITFGQGTKVEIKR
notes: Full-size human IgG4 (S228P) kappa antibody made in ExpiCHO-S; human IL-2 signal peptide is cleaved and left out; also called HVEM011 antibody
Question: B7 was tested. Which “binding affinity (ELISA fit)” value (Mouse HVEM-Fc [1]) did it give?
Answer: 219 pM

Question: What about the “binding affinity (ELISA fit; table in pM)” value (human HVEM-Fc protein [2]) of the same binder?
Answer: 25.9 pM

Question: And the “binding affinity (ELISA fit; table in pM)” value (Monkey HVEM-Fc)?
Answer: 65.9 pM

Question: What about the Kd (human HVEM-Fc protein [3]) of the same binder?
Answer: 22.5 pM and 14.6 pM

Question: What about the kon (human HVEM-Fc protein [3]) of the same binder?
Answer: 425000 M⁻¹ s⁻¹ and 598000 M⁻¹ s⁻¹

Question: What about the “binding affinity (ELISA fit; table in pM)” value (Mouse HVEM-Fc [4]) of the same binder?
Answer: 203 pM

Question: What about the “binding affinity (ELISA fit)” value (human HVEM-Fc protein [5]) of the same binder?
Answer: 23.4 pM

Question: And the koff (human HVEM-Fc protein [6])?
Answer: 9.53e-06 s⁻¹ and 8.75e-06 s⁻¹

B8: HVEM017 (antibody, human IgG4 S228P, kappa, V domains shown)
VH: EVQLLESGGGLVQPGGSLRLSCAASGFTFSTNYMSWVRQAPGKGLEWVSLISYSGSNKYYADSVKGRFTISHDNSKNTLYLQMNSLRAEDTAVYYCARGRGNTISGTFDLWGQGTLVTVSS
VL: EIVLTQSPGTLSLSPGERATLSCRASRSVGKYLAWYQQKPGQAPRLLIYSASTLSSGIPDRFSGSGSGTDFTLTISRLEPEDFAVYYCQQYGSSPPITFGQGTKVEIKR
notes: also called HVEM0017
Question: How did the “binding affinity (ELISA fit)” value (Mouse HVEM-Fc [1]) turn out when B8 was run?
Answer: 112 pM

Question: And the “binding affinity (ELISA fit)” value (human HVEM-Fc protein [5])?
Answer: 21.5 pM

B9: HVEM040 (antibody, human IgG4 S228P, kappa, V domains shown)
VH: EVQLLESGGGLVQPGGSLRLSCAASGFTFSNYGMSWVRQAPGKGLEWVSSIYYSGDTYYNPSLESRFTISRDNSKNTLYLQMNSLRAEDTAVYYCASGSNAFDIWGQGTLVTVSS
VL: EIVLTQSPGTLSLSPGERATLSCRASRSVGKYLAWYQQKPGQAPRLLIYGASSRTTGIPDRFSGSGSGTDFTLTISRLEPEDFAVYYCQQYGSSPPVTFGQGTKVEIKR
Question: Which “binding affinity (ELISA fit)” value (Mouse HVEM-Fc [1]) does the source give for B9 here?
Answer: 126 pM

Question: And the “binding affinity (ELISA fit)” value (human HVEM-Fc protein [5])?
Answer: 20 pM

B10: HVEM030 (antibody, human IgG4 S228P, kappa, V domains shown)
VH: EVQLLESGGGLVQPGGSLRLSCAASGFTFSGYYWTWVRQAPGKGLEWVSTISASGDSTYYADSVKGRFTISRDNSKNTLYLQMNSLRAEDTAVYYCAHDRTFGYFDYWGQGTLVTVSS
VL: EIVLTQSPGTLSLSPGERATLSCRASRSVGKYLAWYQQKPGQAPRLLIYAASSLQSGIPDRFSGSGSGTDFTLTISRLEPEDFAVYYCQQYGSSPPITFGQGTKVEIKR
Question: What does the source list for B10?
Answer: binding affinity (ELISA fit) (Mouse HVEM-Fc [1]): 16.6 pM; binding affinity (ELISA fit) (human HVEM-Fc protein [5]): 16.1 pM

B11: HVEM041 (antibody, human IgG4 S228P, kappa, V domains shown)
VH: EVQLLESGGGLVQPGGSLRLSCAASGFTFSSYAMSWVRQAPGKGLEWVSEISQSGSSNYNPSLKSRFTISRDNSKNTLYLQMNSLRAEDTAVYYCATGRWRFDYWGQGTLVTVSS
VL: EIVLTQSPGTLSLSPGERATLSCRASRSVGKYLAWYQQKPGQAPRLLIYGASTRATGIPDRFSGSGSGTDFTLTISRLEPEDFAVYYCQQYGSSPPVTFGQGTKVEIKR
Question: With B11 as the binder, how does the “binding affinity (ELISA fit)” value (Mouse HVEM-Fc [1]) read?
Answer: 141 pM

Question: And the “binding affinity (ELISA fit)” value (human HVEM-Fc protein [5])?
Answer: 20.1 pM

— patent publication US20240034800A1 (MEDYTOX, published 2024)
